Reference: US20060185026

Tested on: tau (substrate in the in vitro phosphorylation assay of FIG. 1A)

PKCζ (kinase in the in vitro phosphorylation assay of FIG. 1A)
incorporation of radioactive phosphate into tau (autoradiogram): when tau is incubated with PKCζ phosphate is incorporated into tau
